Patent publication US12527876B2, “Insulin-like growth factor-chemotherapeutic conjugate for treating myelodysplastic syndrome” (IGF Oncology, LLC, priority 2017, dated 2026)

Experiments:
MCF7-L tumors = assay: In vivo tumor growth inhibition, MCF7-L xenografts; set-up: species or system nu/nu mice; settings: day 22; IV days 0 and 5; IGF-MTX (long-R3-IGF-1-methotrexate) 10 nmol of MTX/g, free MTX 40 nmol/g
Description: (§1) MCF7 cells (human breast adenocarcinoma cell line) were grown in Eagle's minimal essential medium supplemented with 0.1 mg/ml insulin and 10% FCS. The estrogen-dependent MCF7-L cell line was a gift from Deepali Sachdev of the University of Minnesota. MCF7-L cells were grown in modified IMEM medium (Invitrogen, Carlsbad, California, USA) supplemented with 0.1 mg/ml insulin. LNCaP cells (metastatic human prostatic adenocarcinoma) were grown in RPMI supplemented with glutamine and 10% FCS (Invitrogen, Carlsbad, California, USA). Cells were grown at 37° C. in a 5% CO2 humidified atmosphere. In each case, cells were grown to approximately two-thirds confluence, harvested by trypsinization, washed with rich medium and then washed twice with PBS and resuspended in phosphate buffered saline in BD matrigel matrix (Becton Dickinson, Franklin Lakes, New Jersey, USA). Cells were injected intradermally in mice on the back. An estrogen pellet (0.5 mg estradiol, 60-day release, Innovative Research of America, Sarasota, Florida, USA) was implanted subcutaneously between the shoulder blades two days before implanting MCF7 and MCF7-L cells. MCF7 and MCF7-L cells were implanted in 8-week-old female nu/nu mice. […]
The second in vivo study was conducted using an estrogen-dependent MCF7 strain, MCF7-L. Tumor cells were implanted, and mice were monitored for tumor growth. […]

MCF7 tumors = assay: In vivo tumor growth inhibition, MCF7 xenografts; set-up: species or system nu/nu mice; settings: IV days 0, 4 and 8; IGF-MTX (long-R3-IGF-1-methotrexate) 10 nmol of MTX/g, free MTX 40 nmol/g
Description: as §1, with “mice. LNCaP cells were implanted in 8-week-old male nu/nu mice. The IGF-MTX conjugate was administered in 2 mM HCl, 1% glycerol. MTX was dissolved in PBS.” for “mice.”

MCF-7 tumor cells = assay: In vitro cytotoxicity assay: inhibition of proliferation of MCF-7 cells, CCK-8 (Example 6); assay type: cell-based; settings: Homo sapiens, MCF7, read-out: IC50 (50% inhibition of cell proliferation)
Description: Day 0. Five-thousand MCF7 cells were plated per well in a 96-well test plate in 100 ul of rich media on day 0.
Day 1. A shadow plate was made for each test plate, with each well of the shadow plate containing media or 3× the intended final concentration of test agent in media in each well. As a negative control, media is used.
After making the shadow plate, 50 ul is transferred from each well of the shadow plate to the corresponding well of the test plate to generate the final concentrations of test agent in the wells of the test plate.
Day 5. Cell proliferation is determined by adding Dojindo CCK-8 reagent and incubating and measuring absorbance of the dye according to the manufacturer's instructions.

LNCaP cells [1] = assay: In vitro proliferation assay of LNCaP cells, Cell Counting Kit-8; assay type: cell-based, human; settings: highest tested concentration of 2000 nM, P=0.003, IGF-MTX = long-R3-IGF conjugate
Description: LNCaP cells were plated in a 96-well plate at 5,000 cells per well in RPMI+glutamine+10% FCS medium in 100 μl. After 24 hours, 100 μl fresh medium was added containing no drug (control), IGF-MTX or MTX at the indicated concentration. After 48 hours of further incubation, cell proliferation was assayed with the Cell Counting Kit-8 (Dojindo Molecular Technologies, Kumamoto, Japan) according to the manufacturer's instructions.

MCF7 cells = assay: In vitro proliferation assay of MCF7 cells, tritiated thymidine (Example 15); assay type: cell-based, human
Description: MCF7 was cultured in Eagle's Minimum Essential Medium, with 0.01 mg/ml human recombinant insulin, 10% fetal bovine serum, and pen/strep. For in vitro proliferation assays it was plated at 8,000 cells per well in a 96-well plate. […] After 5 more days, 1 uCi tritiated thymidine was added per well in 50 ul fresh medium. Six hours later the cells were harvested and radioactivity counted.

[2] = Solubility of IGF-1R ligand-MTX conjugates; assay type: physicochemical; settings: phosphate buffered saline, or any neutral pH solution containing salt, over about 50 mM NaCl
[3] = tested on: soluble IGF binding proteins; settings: compared to wild-type IGF-1; Francis 1992, Tomas 1993, U.S. Pat. No. 4,876,242; cited from earlier work
[4] = set-up: species or system Beagle dogs; settings: dog, in vivo
Source text: Toxicokinetic (TK) parameters for free MTX were estimated from plasma concentration-time data arising from a 5-dose once weekly intravenous infusion study with insulin-like growth factor (IGF) MTX conjugate at low (0.5 μEq/kg), mid (2.0 μEq/kg) and high (4.0 μEq/kg) MTX equivalent dose levels. No consistent differences in the plasma levels of MTX were observed between animals of different genders and thus data from males and females were combined. Plasma levels of MTX increased with time both during and following a 1-hour intravenous infusion of the IGF-MTX conjugate. […] Both the AUC∞ and Cmax values were dose proportional. […] The pharmacokinetics of MTX following Day 29 of dosing were similar to those following Day 1 of dosing.
Following intravenous administration of the IGF-MTX conjugate in the dose range of 0.5-4.0 μEq/kg to Beagle dogs, serum levels of the IGF-MTX conjugate decreased quickly. There was no gender bias and an increase in serum exposure was observed on Day 29 compared to Day 1. […] The elimination of the IGF-MTX conjugate was marginally slower with successive doses, resulting in an increased plasma exposure. The elimination of the IGF-MTX conjugate preceded the development of maximal MTX concentrations.

[5] = rat, in vivo
MDS = settings: higher-risk patients, phase III trial; cited from earlier work
[6] = target: T1, dihydrofolate reductase (DHFR) (Homo sapiens, UniProt P00374); assay: Dihydrofolate reductase inhibition assay (Sigma-Aldrich kit); assay type: biochemical; settings: IC50 in nEq/L divided by MTX per IGF; read-out: inhibition constant in terms of protein concentration
T1 construct: purchased Sigma-Aldrich
T1 sequence (P00374 1-187): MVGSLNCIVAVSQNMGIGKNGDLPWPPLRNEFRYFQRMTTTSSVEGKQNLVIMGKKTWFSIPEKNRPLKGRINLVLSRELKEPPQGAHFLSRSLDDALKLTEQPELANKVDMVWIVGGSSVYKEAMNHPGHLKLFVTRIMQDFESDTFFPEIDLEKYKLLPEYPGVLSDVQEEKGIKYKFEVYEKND
Description: The experiments were done with the dihydrofolate reductase assay kit from Sigma-Aldrich (St. Louis, MO, USA), according to the manufacturer's instructions. In the assay dihydrofolate reductase is mixed with pH 7.5 buffer. […] It was incubated for 30 seconds to allow inhibitor binding. Then NADPH is added to 50 uM final concentration, and then dihydrofolic acid is added to 60 uM final concentration. The reaction is monitored by measuring absorbance at 340 nm.

LNCaP tumors = assay: In vivo tumor growth inhibition, LNCaP xenografts; set-up: species or system nu/nu mice; settings: LNCaP model, 8 nmol/g IGF-MTX vs. 50 nmol/g MTX
Description: as §1, with “back.” for “back. An estrogen pellet (0.5 mg estradiol, 60-day release, Innovative Research of America, Sarasota, Florida, USA) was implanted subcutaneously between the shoulder blades two days before implanting MCF7 and MCF7-L cells. MCF7 and MCF7-L cells were implanted in 8-week-old female nu/nu mice.”
In a final in vivo study, prostate cancer LNCaP cells were implanted intradermally on day 0 in mice, which were then randomized to different treatment groups. […] Tumor size was much smaller in the groups treated with 8 nmol/g or 3.2 nmol/g of the IGF-MTX conjugate (dosage expressed as moles of each MTX molecule) compared to mice treated with higher doses of free MTX (50, 20 or 8 nmol/g). […]

LNCaP cells [7] = settings: 48 hours, nM methotrexate groups, McTavish et al. 2009; cited from earlier work

## CN(Cc1cnc2nc(N)nc(N)c2n1)c1ccc(C(=O)N[C@@H](CCC(=O)O)C(=O)O)cc1 [Methotrexate, methotrexate]
MCF7-L tumors
  tumor growth inhibition: inhibited about equally
MCF7 tumors
  tumor growth over 12 days of observation: tumors continued to grow
MCF-7 tumor cells
  IC50: 88 nM
LNCaP cells [1]
  inhibition of proliferation compared with IGF-MTX: significantly greater inhibition than IGF-MTX
MCF7 cells; Homo sapiens, MCF7, parallel assay, free drug
  IC50: 17 nM
MCF7 cells; MCF-7 cells in vitro
  IC50 of MTX lower than IGF-MTX: about 50 fold

## insulin-MTX: insulin conjugated to methotrexate
[2]
  solubility: low solubility

## des(1-3)IGF1: lacks the first three residues of wild-type IGF-1, SEQ ID NO: 7 [reference compound]
[3]
  binding affinity to the soluble IGF binding proteins: reduced binding affinity

## IGF-MTX
[4]
  apparent clearance of MTX: 5.67 to 7.67 mL/min/kg
  apparent volume of distribution of the IGF-MTX conjugate: 0.07 to 0.20 L/kg
  decrease of apparent clearance on Day 29 compared to Day 1: 25-50%
  mean residence time of the IGF-MTX conjugate: 1.4 to 5.3 h
  terminal half-life of the IGF-MTX conjugate: 2.5 to 4.6 h
[4]; iv
  apparent clearance of the IGF-MTX conjugate: 0.33 to 0.83 mL/min/kg
[5]
  decrease of platelets: approximately 38%
  increase of mean spleen weight: 17 to 38%
  mean increases or decreases in blood glucose: −1.8±7 to 7.5±3.4
  reduction in neutrophils: 50-57%
  reduction of WBC's: 5-35%

## Nc1ncn([C@@H]2O[C@H](CO)[C@@H](O)[C@H]2O)c(=O)n1 [azacitidine]
MDS
  patients with responses: approximately 50%
  survival at 2 years of follow-up compared to conventional care: doubled

B1: IGF132: variant of IGF-1, SEQ ID NO: 4, disclosed in U.S. Pat. No. 4,876,242 (protein)
chain: FVNQHLCGSHLVEALYLVCGDRGFYFNKPTGYGSSSRRAPQTGIVDECCFRSCDLRRLEMYCAPLKPAKSA
[3]
  binding affinity to the soluble IGF binding proteins: reduced binding affinity

B2: LR3IGF-MTX (conjugate)
chain: MFPAMPLSSLFVNGPRTLCGALVDALQFVCGDRGFYFNKPTGYGSSSRRAPQTGIVDECCFRSCDLRRLEMYCAPLKPAKSEA
[2]
  solubility: low solubility
[6]
  IC50: 35 nM
LNCaP tumors
  more effective than free MTX at fold lower molar dose of MTX groups: at least 6 fold
LNCaP cells [7]
  IC50: ~1000 nM
